Results reported in patent publication US10487318.
Substitutions are numbered along the chain they refer to.

T1: Glia_56-79 peptide (LQLQPFPQPQLPYPQPQLPY)
T1 chain: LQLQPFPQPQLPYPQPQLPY

T2: fluorescently quenched α-gliadin hexapeptide analogue QXL520-PQPQLP-K(5-FAM)-NH2
T2 chain: PQPQLP

T3: 33mer peptide (LQLQPFPQPQLPYPQPQLPYPQPQLPYPQPQPF)
T3 chain: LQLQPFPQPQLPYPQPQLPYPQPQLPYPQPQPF

T4: γ-gliadin peptide (IQPQQPAQL)
T4 chain: IQPQQPAQL

T5: 26mer peptide (FLQPQQPFPQQPQQPYPQQPQQPFPQ)
T5 chain: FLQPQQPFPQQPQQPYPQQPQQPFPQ

T6: α2-gliadin peptide (PQPQLPYSQPQPFR)
T6 chain: PQPQLPYSQPQPFR

T7: fluorescent analogue of gliadin, hexapeptide QPQLPY conjugated to a fluorophore and a quencher
T7 chain: QPQLPY

T8: α9-gliadin peptide (QLQPFPQPQLPY)
T8 chain: QLQPFPQPQLPY

B1: Homologue 4 (NCBI ZP_10028298) (protein)
chain: MANHPLNGSERECLKDAQPIGKADPNERLEVTMLVRRRSHDAFEKHISALAAQGASAKHIDHDEFTKHFGADSADLAAVHAFAQKHGLSVVESHEARRAVVLSGTVAQFDAAFGVSLQQYEHDGGTYRGRTGPIHLPDELNGVVDAVMGLDNRPQARPSFRTRAQGNVRWTARAAGASTFTPVQLASLYDFPQGDGQNQCIGIIELGGGYRPADLKTYFASLNMKAPSVTAVSVDHGRNHPTGDPNGPDGEVMLDIEVAGAVAPGAKIVVYFAPNTDAGFIDAIGTAIHDTKNKPSVISISWGGPESAWTQQAMNAFDQAFQSAAALGVTICAASGDNGSGDGVGDGADHVDFPASSPYALGCGGTSLQASGNGIASETVWNDGANGGATGGGVSSFFALPAWQEGLRVTRAGGAHSPLAMRGVPDVAGNADPVTGYEVRVDGHDMVIGGTSAVAPLWAGLIARINAIKGAPVGYINPHLYKDPLALVDITKGNNDDFHATAGWDACTGLGRPDGKKVKDAVS
B2: Kumamolisin-As (wild type) (protein)
chain: MSDMEKPWKEGEEARAVLQGHARAQAPQAVDKGPVAGDERMAVTVVLRRQRAGELAAHVERQAAIAPHAREHLKREAFAASHGASLDDFAELRRFADAHGLALDRANVAAGTAVLSGPVDAINRAFGVELRHFDHPDGSYRSYLGEVTVPASIAPMIEAVLGLDTRPVARPHFRMQRRAEGGFEARSQAAAPTAYTPLDVAQAYQFPEGLDGQGQCIAIIELGGGYDEASLAQYFASLGVPAPQVVSVSVDGASNQPTGDPSGPDGEVELDIEVAGALAPGAKFAVYFAPNTDAGFLDAITTAIHDPTLKPSVVSISWGGPEDSWTSAAIAAMNRAFLDAAALGVTVLAAAGDSGSTDGEQDGLYHVDFPAASPYVLACGGTRLVASGGRIAQETVWNDGPDGGATGGGVSRIFPLPAWQEHANVPPSANPGASSGRGVPDLAGNADPATGYEVVIDGEATVIGGTSAVAPLFAALVARINQKLGKAVGYLNPTLYQLPADVFHDITEGNNDIANRAQIYQAGPGWDPCTGLGSPIGVRLLQALLPSASQPQPGSTENLYFQSGALEHHHHHH
B3: Homologue 2 (NCBI ZP_04943175) (protein)
chain: MQRGTKEGLNMARHLQADREPRIVPESKCLGQCDPAERIHVTIMLRRQEEGQLDALVHQLATGDARAKPVSRDAFAQRFSANPDDIRKTEDFAHRHQLTVDRVDPVESVVVLSGTIAQFEAAFSVKLERFEHRSIGQYRGRSGPIVLPDDIGDAVTAVLGLDSRPQARPHFRFRPPFKPARGAAAVTFTPIQLASLYDFPAGDGAGQCIAIIELGGGYRAADIQQYFRGLGITTPPKLVDVNVGTGRNAPTGEPNGPDGEVALDIEIAGAIAPAAKIAVYFAPNSDAGFIQAVNAAVTDKTNQPSVISISWGGPEAIWQAQSAQAFNRVLQAAAAQGITVCAASGDSGSGDGLQDGADHVDFPASSPYVLGCGGTQLDALPGQGIRSEVTWNDEASGGGAGGGGVSALFDLPAWQQGLKVARADGTTTPLAKRGVPDVAGDASPQTGYEVSVAGTPAVMGGTSAVAPLWAALIARINAANGASAGWINPVLYKHPGALRDITKGSNGTYAAASGWDACTGLGSPNGAQLATILARKPSS
B4: Homologue 9 (NCBI YP_005042475) (protein)
chain: MTKQPVSGSSDKIHPDDAKCIGDCDPSEQIEVIVMLRRKDEAGFRQMMSRIDAGEAPGQAVSREEFDRRFTASDEDIDKVKAFAKQYGLSVERAETETRSVVLKGTIEQFQKAFDVKLERFQHHNIGEYRGRTGPVNVPDEMHDAVTAVLGLDSKPQARPHFRFRPPFKPLRGAAPASFSPVDLAKLYDFPDGDGAGQCIAIIELGGGYRDSDLSAYFSKLGVKAPTVVPVGVDGGKNAPTGNPNGPDGEVTLDIEIAGAIAPGARIAVYFAPNSDAGFVDAVNRALHDAANKPSVISISWGGPESNWSPQSMSAFNDVLQSAAALGVTVCAASGDGGSADGVGDGADHVDFPASSPYVLGCGGTSLAASGAGIAKEVVWNDGDQGGAGGGGVSGTFALPVWQKGLSVTRNGKHIALAKRGVPDVAGDASPQTGYEVLIDGEDTVVGGTSAVAPLWAALIARINAIDASPAGFVNPKLYKAKTAFRDITEGNNGSFSAAAGWDACTGMGSPDGGKIAAALKPAKPSQSAGQQ
B5: Homologue 1 (NCBI YP_005536585) (protein)
chain: MAPSDVEIVDPVAPEERITVTVLLRRRSSIPDQLIEGPDTLSRAELADRHGADPADVEAVRVAMSGAGLTVVGTDLPSRRVTVAGTAEALMRTFGAELQIVRDASGFQHRARSGELRIPAALDGIVIAVLGLDNRPQAEARFRASQPEAARSFRPDALGRVYRFPANTDGTGQTIAIVELGGGFRQSELDTYFGGLGIPAPQVLAVGVDGGQNLPSGDAGSADGEVLLDIEVAGALAPGARQVVYFAPNTDRGFVDAVTTAVHADPTPAAVSISWGAPEDKWTAQARRAFDAALADAAALGVTVTAAAGDRGSADGEGGGGLHTDFPASSPHLLACGGTKLAVADGGTVASETVWNGGERGGATGGGVSVAFGLPAYQRNAGVDKRRKTGKPGRGVPDVAAVADPATGYEVLVDGEQLVFGGTSAVAPLWAALVARLTQALGRPLGLLNTALYDGAQPGRTQPGFRDVTEGDNDISGKHGPYPARAGWDACTGLGVPDGEALLAALRKPGKE
B6: KumaMax™ (protein)
chain: MSDMEKPWKEGEEARAVLQGHARAQAPQAVDKGPVAGDERMAVTVVLRRQRAGELAAHVERQAAIAPHAREHLKREAFAASHGASLDDFAELRRFADAHGLALDRANVAAGTAVLSGPDDAINRAFGVELRHFDHPDGSYRSYLGEVTVPASIAPMIEAVLGLDTRPVARPHFRMQRRAEGGFEARSQAAAPTAYTPLDVAQAYQFPEGLDGQGQCIAIIELGGGYDEASLAQYFASLGVPAPQVVSVSVDGASNQPTGDPKGPDGEVELDIEVAGALAPGAKFAVYFAPDTTAGFLDAITTAIHDPTLKPSVVSISWSGPEDSWTSAAIAAMNRAFLDAAALGVTVLAAAGDSGSTGGEQDGLYHVHFPAASPYVLACGGTRLVASGGRIAQETVWNDGPDGGATGGGVSRIFPLPAWQEHANVPPSANPGASSGRGVPDLAGNADPATGYEVVIDGEATVIGGTSAVAPLFAALVARINQKLGKAVGYLNPTLYQLPADVFHDITEGNNDIANRAQIYQAGPGWDPCTGLGSPIGVRLLQALLPSASQPQPGSTENLYFQSGALE
B7: Homologue 4 mutant (protein)
chain: B1 chain with G303S, D342G, D352H

Target: T1, Glia_56-79 peptide …

Q: How did the “grade and % of peptide after an 80-min incubation” value (from here on “grade and % of peptide”) turn out when B1 was run?
A: Its value is “++; 0.6%”.

Q: B2 was tested. Which “grade and % of peptide” value did it give?
A: Its value is “+++; 0.2%”.

Q: For B3, which “grade and % of peptide” value is on record?
A: The value was “++; 0.2%”.

Q: How did the “grade and % of peptide” value turn out when B4 was run?
A: Its value is “+; 9%”.

Q: With B5 as the protein, how does the “grade and % of peptide” value read?
A: Its value is “++; 1.6%”.

Q: Which “grade and % of peptide” value does the source give for B6 here?
A: Its value is “++++”.

Target: T2, fluorescently quenched α-gliadin …

Q: How did the Fold Change in Activity of PQ Hydrolysis Relative to Wild Type Kumamolysin-As turn out when B2 was run?
A: Its Fold Change in Activity of PQ Hydrolysis Relative to Wild Type Kumamolysin-As is 1 fold.

Target: T3, 33mer peptide …

Q: Which “Degradation pattern of 33mer (60 min)” value does the source give for B1 here?
A: Its value is “WT-like”.

Q: What about the “activity on peptide (percent)” value of the same protein?
A: Its value is 38%.

Q: B7 was tested. Which “activity on peptide (percent)” value did it give?
A: The value was 10%.

Q: How did the “Degradation pattern of 33mer (60 min)” value turn out when B2 was run?
A: Its value is “degrades the 33-mer down at only a single location (WT-like)”.

Q: And the “activity on peptide (percent)” value?
A: Its value is 18%.

Q: For B3, which “activity on peptide (percent)” value is on record?
A: The value was 31%.

Q: With B5 as the protein, how does the “activity on peptide (percent)” value read?
A: Its value is 46%.

Q: Which “Degradation pattern of 33mer (60 min)” value does the source give for B6 here?
A: Its value is “degrades the 33-mer at multiple locations (Max-like)”.

Q: And the “activity on peptide (percent)” value?
A: The value was 0.1%.

Target: T4, γ-gliadin peptide (IQPQQPAQL)

Q: How did the “grade and % of peptide” value turn out when B1 was run?
A: The value was “+; 12%”.

Q: For B2, which “grade and % of peptide” value is on record?
A: Its value is “++/-; 39%”.

Q: For B3, which “grade and % of peptide” value is on record?
A: Its value is “+/-; 65%”.

Q: How did the “grade and % of peptide” value turn out when B4 was run?
A: Its value is “++/-; 32%”.

Q: How did the “grade and % of peptide” value turn out when B5 was run?
A: Its value is “++/-; 29%”.

Q: B6 was tested. Which “grade and % of peptide” value did it give?
A: Its value is “+/-; 55%”.

Target: T5, 26mer peptide …

Q: For B7, which “activity on peptide (percent)” value is on record?
A: The value was 19%.

Q: For B4, which “activity on peptide (percent)” value is on record?
A: Its value is 52%.

Q: B6 was tested. Which “activity on peptide (percent)” value did it give?
A: Its value is 26%.

Target: T6, α2-gliadin peptide (PQPQLPYSQPQPFR)

Q: B1 was tested. Which “grade and % of peptide” value did it give?
A: Its value is “++ (undetect)”.

Q: Which “grade and % of peptide” value does the source give for B2 here?
A: Its value is “++ (undetect)”.

Q: How did the “grade and % of peptide” value turn out when B3 was run?
A: Its value is “++ (undetect)”.

Q: Which “grade and % of peptide” value does the source give for B4 here?
A: Its value is “++ (undetect)”.

Q: For B5, which “grade and % of peptide” value is on record?
A: The value was “++ (undetect)”.

Q: For B6, which “grade and % of peptide” value is on record?
A: The value was “+/-; 65%”.

Target: T7, fluorescent analogue of gliadin, …

Q: B1 was tested. Which “rate of degradation of the fluorescent hexapeptide, pH 4.0, 37° C.” value (“rate” for short) did it give?
A: The value was “had activity comparable to or better than Kumamolisin under these conditions”.

Q: Which “rate” value does the source give for B2 here?
A: The value was “Kumamolisin has some activity breaking down these gliadin substrates”.

Q: With B3 as the protein, how does the “rate” value read?
A: Its value is “had activity comparable to or better than Kumamolisin under these conditions”.

Q: How did the “rate” value turn out when B4 was run?
A: The value was “had activity comparable to or better than Kumamolisin under these conditions”.

Q: How did the “rate” value turn out when B5 was run?
A: Its value is “had activity comparable to or better than Kumamolisin under these conditions”.

Target: T8, α9-gliadin peptide (QLQPFPQPQLPY)

Q: Which “grade and % of peptide” value does the source give for B1 here?
A: Its value is “++/-; 25%;”.

Q: B2 was tested. Which “grade and % of peptide” value did it give?
A: The value was “++; 2%;”.

Q: Which “grade and % of peptide” value does the source give for B3 here?
A: Its value is “++/-; 37%;”.

Q: With B4 as the protein, how does the “grade and % of peptide” value read?
A: Its value is “+/-; 62%”.

Q: B5 was tested. Which “grade and % of peptide” value did it give?
A: Its value is “-; 80%”.

Q: B6 was tested. Which “grade and % of peptide” value did it give?
A: Its value is “++; 0.9%”.
